Biological target: Venus-tagged CaV1.1 CI (Ven-CaV1.1 CI) (UniProt P07293)
Experiment: FRET or BRET

Cer-tagged stac3 variant K[288]* (domain or fragment), sequence (Q96MF2 whole entry, change not shown, the tested form may be a part): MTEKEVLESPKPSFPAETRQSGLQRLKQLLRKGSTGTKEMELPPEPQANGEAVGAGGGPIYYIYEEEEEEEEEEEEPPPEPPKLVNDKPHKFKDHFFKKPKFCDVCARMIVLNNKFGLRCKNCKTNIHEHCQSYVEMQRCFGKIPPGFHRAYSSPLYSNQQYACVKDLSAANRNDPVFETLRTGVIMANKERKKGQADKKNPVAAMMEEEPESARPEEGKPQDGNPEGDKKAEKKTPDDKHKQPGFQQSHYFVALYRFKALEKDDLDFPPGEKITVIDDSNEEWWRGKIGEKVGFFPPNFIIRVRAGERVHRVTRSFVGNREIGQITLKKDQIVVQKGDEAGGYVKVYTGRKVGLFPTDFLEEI
Cer-tagged stac3 variant L[111]Δ (natural protein), sequence (Q96MF2 whole entry, stated change not applied): as the sequence (Q96MF2 whole entry, change not shown, the tested form may be a part) above
Cer-tagged stac3 variant W[284]S (Native American myopathy) (natural protein), sequence (Q96MF2 whole entry, change not shown): as the sequence (Q96MF2 whole entry, change not shown, the tested form may be a part) above

| fold weakening of affinity against WT stac3 | Substance | also measured |
| --- | --- | --- |
| – | Cer-tagged stac3 variant K[288]* (domain or fragment) | fold reduction of binding against WT stac3: 2 fold |
| – | Cer-tagged stac3 (wild type) (natural protein) | Kd: 400 nM |
| 10 fold | Cer-tagged stac3 variant W[284]S (Native American myopathy) (natural protein) | – |
| 10 fold | Cer-tagged stac3 variant L[111]Δ (natural protein) | – |

Source: paper PMC6080896
